Results: paper PMC11154709, “4S-fluorination of ProB29 in insulin lispro slows fibril formation” (The Journal of Biological Chemistry, 2024)
“Also recorded” adds a separate entry of the source.

Assays:
Assay type in all cases: physicochemical
[1] = Far-UV circular dichroism (secondary structure); details: for Ellipticity ratio (208/222 nm): 60 µM insulin or lispro variant, 100 mM phosphate, pH 8.0
Procedure: Figure 2 Biological activity and CD spectroscopy of lispro variants.A, lispros were injected subcutaneously into diabetic mice, and blood glucose was measured over time after injection. The data presented here represent the mean ± SD of 3 to 6 biological replicates. B–E, far-UV circular dichroism spectra (60 μM lispro in […] phosphate buffer, pH 8.0). […] 4R-F, 4R-fluoroproline; 4S-F, 4S-fluoroproline.
The secondary structure of each insulin lispro variant was probed by circular dichroism spectroscopy. […] All lispro samples were further analyzed by analytical ultracentrifugation (Fig. S3). To determine the dissociation constant of each variant, we fit the data to a reversible monomer-dimer equilibrium ([29]). […]
Circular dichroism spectroscopy:
Equilibrium measurements: The circular dichroism spectra of insulin or lispro samples (60 µM in
100 mM sodium phosphate, pH 8.0) were measured at 25°C in 1 mm quartz cuvettes using a step
size of 0.5 nm and averaging time of 1 s on an Aviv Model 430 Circular Dichroism
Spectrophotom eter. A reference buffer spectrum was subtracted from each sample spectrum. […]
Analytical ultracentrifugation: […]

[2] = Fibrillation (thioflavin T), shaking at 37 °C; details: 60 μM in 100 mM sodium phosphate, pH 8.0, 37 °C; for Fibrillation lag time: shaking 960 rpm, 1 μM ThT (444/485 nm), lag time = x-intercept, two HPLC fractions, each in triplicate or quadruplicate, two days; for fibrillation: vigorous shaking, ThT
Procedure: Each insulin lispro variant was subjected to continuous, vigorous shaking at 37 °C to assess its stability against physical denaturation; fibrillation was monitored with the dye thioflavin T, (Fig. 4A).
Figure 4 Fibrillation of lispro variants.A, lispro variants (60 μM in 100 mM phosphate buffer, pH 8.0) were incubated at 37 °C with vigorous shaking; fibril formation was monitored by ThT fluorescence. Fibrillation runs were performed on two separate HPLC fractions, each in triplicate or quadruplicate, on two separate days. B–E, TEM images of lispro (B), KP-4R-F (C), KP-4S-F (D), and KP-44-diF (E) aggregates. F, ANS emission spectra of lispro variants (1 μM lispro variant labeled with 5 μM ANS in 100 mM phosphate buffer, pH 8.0). The data presented here indicate the mean ± SD for each variant from measurements of three separate HPLC fractions. 44-diF, 4,4-difluoroproline; 4R-F, 4R-fluoroproline; 4S-F, 4S-fluoroproline; ThT, thioflavin T.
Lispro samples (60 μM in 100 mM sodium phosphate buffer, pH 8.0) were centrifuged (22,000g, 1 h, 4 °C); 1 μM thioflavin T was then added. Each lispro variant was shaken continuously in a 96-well, black, clear bottom plate at 37 °C, and fluorescence (444 nm excitation, 485 nm emission) was monitored over time. Fibrillation runs were performed on two separate HPLC fractions, each in triplicate or quadruplicate, on two separate days. The growth phase of each replicate was fit to a linear function; lag times were reported as the x-intercept. […]
Lispro samples (60 µM in 100 mM sodium phosphate, pH 8.0) were centrifuged at 22,000 g for 1 h at 4°C, before 1 µM thioflavin T (ThT) was added. Each lispro (200 µL) was added to a 96 -well, black, clear bottom plate (Greiner Bio -One) and sealed. Samples were shaken continuously at 960 rpm on a Varioskan multimode plate reader at 37°C, and fluorescence readings were recorded every 15 min (444 nm excitation, 485 nm em ission). Fibrillation runs were performed on at least two separate HPLC fractions, each in triplicate or quadruplicate, and on two different days. The growth phase of each fibrillation replicate was fit to a linear function; f ibrillation lag times were reported as the x-intercept of this fit. Fibril samples were stored at 4°C until analysis by transmission electron microscopy (TEM).
Transmission electron microscopy: […]

[3] = test system: zinc- and resorcinol-bound hexamer; assay: Hexamer dissociation kinetics by CD after dilution; details: 250 μM ZnCl2, 25 mM resorcinol; for Hexamer dissociation t1/2: 600 μM insulin or lispro, 25 mM tris pH 8.0, 150-fold dilution, 25 °C, ellipticity at 222 nm over 120 s, at least two separate HPLC fractions, different days
Procedure: We measured the half-life (t1/2) for dissociation of the hexamer form of each lispro variant by monitoring the change in negative ellipticity at 222 nm over time after dilution (Figs. 3A, S4, and S5). Insulin and lispro variants were formulated to mimic the pharmaceutical formulation (600 μM insulin, 25 mM resorcinol, 250 μM ZnCl2); resorcinol was used as the phenolic ligand to slow dissociation ([30]). […] Monitoring dissociation processes faster than that of lispro is limited by the mixing time of this experiment, though comparisons to human insulin can still be made.
Samples were dialyzed overnight against 28.6 mM tris buffer, pH 8.0, then formulated as 600 μM insulin or lispro, 250 μM ZnCl2, 25 mM resorcinol, 25 mM tris, pH 8.0. A 20 μl aliquot of the formulation solution was injected into a stirred buffer solution containing 2.98 ml of 25 mM tris, pH 8.0 (150-fold dilution) at 25 °C. Ellipticity was monitored over 120 s at 222 nm. A typical run led to a rapid drop in CD signal as mixing occurred (∼5 s), then a gradual rise to an ellipticity representative of an insulin monomer. Data preceding the timepoint with the greatest negative ellipticity represented the mixing time and were omitted from further analysis. […] Dissociation data were fit to a mono-exponential function using Scipy (Python). The data presented here are from at least two separate HPLC fractions, measured on different days. […]
Circular dichroism spectroscopy: […]
Kinetic measurements: Insulin or lispro samples in 100 mM sodium phosphate buffer pH 8.0 were dialyzed overnight against 28.6 mM tris buffer, pH 8.0 (Slide -A-Lyzer dialysis cassettes, 3.5 kDa MWCO, ThermoFisher). Samples were formulated as follows: 600 µM lispro, 250 µM ZnCl 2, 25 mM resorcinol, 25 mM tris buffer, pH 8. A 20 µL volume of the insulin formulation was injected into a stirred buffer solution containing 2.98 mL of 25 mM tris, pH 8.0 in a 10 mm quartz cuvette (150-fold dilution). Ellipticity was m onitored at 222 nm over 120 s (1 s kinetic interval, 0.5 s time constant) at 25°C. A typical run led to a rapid drop in CD signal as mixing occurred (~5 s), then a gradual rise to an equilibrium ellipticity representative of an insulin monomer. Data preceding […]
omitted from further analysis. Runs were discarded if the maximum change in mean residue […]
remaining data were fit to a mono -exponential function using Scipy (Python); data presented here are from at least two separate HPLC fractions, measured on two different days.
An equilibrium spectrum for each protein was obtained after dilution; all spectra were indicative of an insulin monomer (Figure S3). The CD spectrum of lispro under pre -dilution formulation conditions was obtained using a 0.1 mm quartz cuvette. […]

Row | Substance | Ellipticity ratio (208/222 nm) ([1]; 25 °C) | Fibrillation lag time [2] [h] | fibrillation [2] | Hexamer dissociation t1/2 [3] [s] | oligomeric state at 60 μM ([1]; 60 μM, statement in discussion of CD spectra) | CD spectrum ([1]; far-UV CD, 60 μM lispro in 10 mM phosphate buffer, pH 8.0 (Fig. 2; SI: 100 mM sodium phosphate), 25 °C) | hexamer dissociation ([3]; 600 μM protein, 150-fold dilution, pH 8.0, 25 °C, CD 222 nm)
1 | KP-4R-F: insulin lispro with ProB29 replaced by 4R-fluoroproline | 1.62 ± 0.06 | 10.3 ± 2.4 | did not significantly change the fibrillation lag time | 10.2 ± 1.6 | – | – | –
2 | KP-4S-F: insulin lispro with ProB29 replaced by 4S-fluoroproline | 1.59 ± 0.06 | 17.9 ± 0.8 | stabilized against fibril formation; also recorded: extended lag time to fibril formation | 11.2 ± 3.3 | – | – | –
3 | KP-44-diF: insulin lispro with ProB29 replaced by 4,4-difluoroproline | 1.61 ± 0.05 | 9.0 ± 1.3 | did not significantly change the fibrillation lag time | 9.9 ± 2.9 | – | – | –
4 | insulin lispro: fast-acting insulin with inversion of the residues ProB28 and LysB29; Humalog, Eli Lilly [reference compound] | 1.63 ± 0.07 | 10.9 ± 2.2 | – | – | monomeric | increased negative ellipticity at 208 nm and decreased negative ellipticity at 222 nm | dissociated significantly more rapidly than human insulin
